Measured values taken from PMC10397319, “The phosphatidylinositol (4,5)-bisphosphate-Rab35 axis regulates migrasome formation” (Cell Research, 2023).
Ends that are not written are not given here.

Target: T1, His-GFP-Rab35-Q67L (rat, UniProt Q5U316 1-201, Q67L)
T1 construct: Rab35, cloned from rat cDNA, constitutively active mutant Q67L; the methods describe only the WT purification; also called constitutively active Rab35-Q67L; active Rab35; source: cloned into pET21b, purified; not shown: GFP, N-terminal, kept
T1 sequence (Q5U316 whole entry Q67L): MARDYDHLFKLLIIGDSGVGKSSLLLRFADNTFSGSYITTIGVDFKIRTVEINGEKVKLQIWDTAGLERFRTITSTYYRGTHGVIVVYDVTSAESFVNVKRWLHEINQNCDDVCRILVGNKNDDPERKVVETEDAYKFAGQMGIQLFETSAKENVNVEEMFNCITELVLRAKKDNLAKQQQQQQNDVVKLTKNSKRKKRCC
Experiment: dual-color fluorescence cross-correlation spectroscopy (dcFCCS); both free in solution; 100 nM GFP-Rab35 mixed with 500 nM Cy5-ITGα5-cyto; 20 mM HEPES pH 7.5, 100 mM NaCl, 2 mM MgCl2, 0.1% BSA; 25 °C; 5 min recording, three repeats
Conditions: both partners purified

binding result: binds
B1: Cy5-ITGα5-cyto-WT (peptide)
peptide: YKLGFFKRSLPYGTAMEKAQLKPPATSDA
modifications: also: Sulfo-Cy5 label, site not given here
notes: also called cytosolic domain of integrin α5; WT peptide; source: synthetic peptide (Synpeptide Co., Ltd.), labelled with Sulfo-Cy5 NHS ester
